{"source": "paper PMC554781", "origin": "cited, not measured here", "target": "CD200R (Homo sapiens) (UniProt Q8TD46)", "sequence (Q8TD46 25-265)": "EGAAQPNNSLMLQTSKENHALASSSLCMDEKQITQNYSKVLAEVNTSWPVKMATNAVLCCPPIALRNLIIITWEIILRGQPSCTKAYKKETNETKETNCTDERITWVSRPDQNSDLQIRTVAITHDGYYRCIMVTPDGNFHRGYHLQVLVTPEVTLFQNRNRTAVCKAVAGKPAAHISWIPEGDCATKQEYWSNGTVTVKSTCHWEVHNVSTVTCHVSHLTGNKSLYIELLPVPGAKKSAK"}
{"substance": "CD200 (from UniProt P41217)", "values": [{"measurement": "Kd", "result": 500, "unit": "nM"}]}
